In the supplement of paper PMC12764529:
± gives the half width of the 95% confidence interval.

Tests used:
[1] = folding stability dG unfold from trypsin proteolysis; higher = more stable
Outline: (§1)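 Designed mini-proteins (under 80 residues, no cysteine) in a PA-tagged cDNA display construct were digested with trypsin and chymotrypsin. Each protease was used at 11 concentrations (threefold dilutions) plus a no-protease condition, followed by sequencing. K50 was inferred by Bayesian fitting of sequencing counts, and unfolding free energy was derived against a sequence-predicted unfolded-state K50 and a shared folded-state K50, per protease or combined. Only designs with AlphaFold2 dimer inter-PAE above 15 were kept.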

[2] = folding stability dG unfold from chymotrypsin proteolysis; higher = more stable
Outline: as §1

[3] = folding stability dG unfold (combined trypsin and chymotrypsin); higher = more stable
Outline: as §1

| Sequence | folding stability dG unfold [1] | folding stability dG unfold [2] | folding stability dG unfold [3] |
| --- | --- | --- | --- |
| SAGGKKEKKLTLLFSDPNGKLSLVIEVYKKKDGSYWAVFYNPETGKKEEYKFKSLEELEEAVKELLKKSAGG [r13_857_TrMRF] | 2.8 ± 0.048 kcal/mol | 4.579 ± 0.045 kcal/mol | 4.27 ± 0.077 kcal/mol |
| SAGGKKIEIYKLKDALIIKIPEKGLLILLGNDTAIIFKVKSIKNNGKPKIISSKIISLEEILDLIKSSAGGS [r8_174_TrMRF] | 2.79 ± 0.12 kcal/mol | 3.75 ± 0.047 kcal/mol | 3.31 ± 0.13 kcal/mol |
| SAGGKKIIIVIGSPEEVERLKELFPDEEVITLPREALENPEVLKELIKELEEKGIEVEIIIPPGVKPSAGGS [r8_376_TrROS_Hall] | 3.82 ± 0.37 kcal/mol | 1.94 ± 0.26 kcal/mol | 3.73 ± 0.44 kcal/mol |
| SAGGKKITITLTVKTPEDALAAARELAEALGLKIKKIKKVEVTYDEENNLVTVKVEIEIEPLPEEELSAGGS [r16_155_TrROS_Hall] | 4.69 ± 0.33 kcal/mol | 4.27 ± 0.1 kcal/mol | 4.41 ± 0.19 kcal/mol |
| SAGGKKITVTVTRERTEDGTLRVTVTLRDEETGRTLTLTLTVPRENEEEVEEAAKRLAEELAADPELESAGG [r13_968_TrROS_Hall] | 2.82 ± 0.064 kcal/mol | 4.72 ± 0.12 kcal/mol | 4.42 ± 0.17 kcal/mol |
| SAGGKKIVIVAPPGMSPEELAELLKKLFPGLEVEVREVSAEELKKLKPGDEVLVIEVDGRLYAVKIKPSAGG [r13_649_TrROS_Hall] | 2.05 ± 0.11 kcal/mol | 3.67 ± 0.14 kcal/mol | 3.21 ± 0.12 kcal/mol |
| SAGGKKKITIEVEKKEDGKEVKVKIKVDGKEIEITFPENMSKEELLEAAKKLAEENNIEIEEVEIYPSAGGS [r16_753_TrROS_Hall] | 1.24 ± 0.1 kcal/mol | 1.54 ± 0.091 kcal/mol | 1.53 ± 0.15 kcal/mol |
| SAGGKKKKIIIVLSKEEAEKKAEELKKELEKKGIEVEEVKVVEGMSEEEVKELAEKEKKPVIVIEPKSAGGS [r16_94_TrROS_Hall] | -0.158 ± 0.077 kcal/mol | 1.27 ± 0.075 kcal/mol | 0.813 ± 0.14 kcal/mol |
| SAGGKKKKKKKIEKKVKTVTIKIKAKTKEEAKKALEELLKKKGLEVEIVKIEYDPETKEITVTVKVKPSAGG [r13_567_TrROS_Hall] | 1.92 ± 0.044 kcal/mol | 2.32 ± 0.12 kcal/mol | 2.14 ± 0.085 kcal/mol |
| SAGGKKKKLKIKIVIVAKSKEEAEKLAKELAEKLKELGIKEVEIEVEVIELPPPPPPPKPDSPEYKKKSAGG [r13_6_TrROS_Hall] | -0.453 ± 0.34 kcal/mol | -0.131 ± 0.36 kcal/mol | 0.372 ± 0.42 kcal/mol |
| SAGGKKKKPERVEVTIVLPPEILEAIKAGKPLTKEEIAKLLGLPPGAEIKIERREDGYLVIKITLPKSAGGS [r16_679_TrROS_Hall] | 1.61 ± 0.03 kcal/mol | 3.19 ± 0.044 kcal/mol | 2.8 ± 0.069 kcal/mol |
| SAGGKKKKVKKVKVEVKVTVTLTIKLPKEKIKSKEEAEALAKKLLEELGIEGAKVKIEEKDGYLTLTFSAGG [r13_130_TrROS_Hall] | 2.66 ± 0.092 kcal/mol | 4.24 ± 0.2 kcal/mol | 3.85 ± 0.39 kcal/mol |
| SAGGKKKPKVKTITITLPKKDIKIGDVITAEEIAKLLGLPKNAKIKVVEVKYDKETGEVTIKIEIYESAGGS [r16_165_TrROS_Hall] | 1.98 ± 0.045 kcal/mol | 3.29 ± 0.1 kcal/mol | 2.96 ± 0.11 kcal/mol |
| SAGGKKKPPKVKIVSIEVEVFKNENGEKFVKVKIKFEKTNKIITITVPPGMTLEELAKKLNIEIEKESAGGS [r16_676_TrROS_Hall] | 1.67 ± 0.048 kcal/mol | 3.04 ± 0.041 kcal/mol | 2.72 ± 0.088 kcal/mol |
| SAGGKKKVKITKITSIDKKNGVITLEIEDPKTKKKYKIKAKVVKLKNGKKLLVIEIEVNGKKIKIVFKSAGG [r13_993_TrROS_Hall] | 2.49 ± 0.15 kcal/mol | 4.23 ± 0.16 kcal/mol | 3.81 ± 0.47 kcal/mol |
| SAGGKKKVTIEIVYDPEEDYVLIRIRIKDPNGNEREITIRMSRDEIKKLLEELKGKITSIEVRRLPPSAGGS [r16_298_TrROS_Hall] | 3.02 ± 0.1 kcal/mol | 3.12 ± 0.059 kcal/mol | 3.14 ± 0.12 kcal/mol |
| SAGGKKVEILEVSVKPVTLGGKKKYYLNVKVKTPDGKVVNVTMPLEVVKSLGFSIEEFAKAVAKTLLSAGGS [r16_625_TrMRF] | 2.96 ± 0.071 kcal/mol | 3.89 ± 0.045 kcal/mol | 3.61 ± 0.055 kcal/mol |
| SAGGKKVIEIEITVKPGETITITVPPGARIEIVDLDTGEVREIEIEPGETITLTLPPGSTLLIRIYEPSAGG [r19_78_TrROS_Hall] | 3.66 ± 0.25 kcal/mol | 4.04 ± 0.11 kcal/mol | 4.01 ± 0.23 kcal/mol |

| Sequence | folding stability dG unfold [1] | folding stability dG unfold [2] | folding stability dG unfold [3] |
| --- | --- | --- | --- |
| SAGGKKVKVEKVATFELEDGSKITITTVTLPNGEKLVLIEITNPNGEKKTIVVSYEDLKEVLEALKKSAGGS [r16_588_TrROS_Hall] | 2.51 ± 0.086 kcal/mol | 2.7 ± 0.16 kcal/mol | 2.65 ± 0.28 kcal/mol |
| SAGGKKVVITLTAEELEELLKEGKPLTAEEIARRLLPPGAKVTVEVTYDPETKEVTVTVVIEVPEELESAGG [r13_862_TrROS_Hall] | 2.27 ± 0.13 kcal/mol | 2.16 ± 0.21 kcal/mol | 2.22 ± 0.12 kcal/mol |
| SAGGKKYKVKVVSVEYDKETKEVTVKVEFEDNKVVVEKKVKVKLPPVKIEFSEEDLKEGKVEIKIEFSAGGS [r16_809_TrROS_Hall] | 1.46 ± 0.11 kcal/mol | 2.63 ± 0.049 kcal/mol | 2.27 ± 0.1 kcal/mol |
| SAGGKKYYLIKITVKTEKKEYTLPDGSKVTVEKTYELTIIVESKEEAEKLAEELAKKYNLEVEIVPLSAGGS [r8_131_TrROS_Hall] | 2.95 ± 0.13 kcal/mol | 4.83 ± 0.064 kcal/mol | 4.51 ± 0.13 kcal/mol |
| SAGGKLAELKEILKKLGLPKIESIEEDPETGVLRFKASSSKPILVTVPVRSLGDGSRPIEVEIKSTNISAGG [r13_410_JUSTAS] | 0.227 ± 0.24 kcal/mol | 0.448 ± 0.32 kcal/mol | 0.342 ± 0.18 kcal/mol |
| SAGGKLPKGAKIVSVEFDKETKEIRIKVEFYDKNGKLIKTIEKTIKIKPKPKLSEEEKKKLEEEKKKSAGGS [r16_697_TrROS_Hall] | 0.96 ± 0.18 kcal/mol | 1.46 ± 0.28 kcal/mol | 1.65 ± 0.23 kcal/mol |
| SAGGKLTITVKVNENGELIATVEITEVVENAKPGDVLTVKAKVVNPKTKETKEIEAKIKVENGKLVLESAGG [r13_208_TrROS_Hall] | 2.1 ± 0.077 kcal/mol | 2.33 ± 0.069 kcal/mol | 2.16 ± 0.12 kcal/mol |
| SAGGKMTLKDIEIIEVIEKDGEIEVVLIRNKKTNKVIAIPREDLEKLLSLPEDVEVVRLRIKPGEKLSAGGS [r16_61_TrROS_Hall] | 1.3 ± 0.07 kcal/mol | 1.34 ± 0.15 kcal/mol | 1.32 ± 0.18 kcal/mol |
| SAGGKNLKPIGTVTLTNPKGEKVEIVEFEGPVFVVLTPKDGSKKIVSAEGKSLEEILKELEKEGYEVEPSAG [r5_613_TrMRF] | 1.22 ± 0.061 kcal/mol | 2.15 ± 0.081 kcal/mol | 1.76 ± 0.15 kcal/mol |
| SAGGKPKVYEFEITIEFKTKTKKDKNGKTYKVKKIKIKIKVKVVVDEENKKIYIFDENGKLIAEFELSAGGS [r16_92_TrROS_Hall] | 3 ± 0.22 kcal/mol | 4.01 ± 0.13 kcal/mol | 3.72 ± 0.26 kcal/mol |
| SAGGKPPKTVTVTLTLPDGVKITIEYNEETGEVTVTIEVFKDGKLVKTITITAPSLDEALEALKKLLSAGGS [r16_55_TrROS_Hall] | 3.25 ± 0.23 kcal/mol | 4.19 ± 0.18 kcal/mol | 3.87 ± 0.13 kcal/mol |
| SAGGKPPNLKIKIEVIPIPNGYWIITFRIKVPPNEPLKIRFPDFGREIEFPPGDEVTIMILIPPDDLSAGGS [r16_56_TrROS] | 3.64 ± 0.2 kcal/mol | 4.8 ± 0.2 kcal/mol | 4.62 ± 0.35 kcal/mol |
| SAGGKQEIEIPIPYKNGMPFRIRIEWEEDPNKPRLRIPIWAPNMPASNFAEEIKKELPPDIKDVEIWPSAGG [r13_404_TrROS] | 0.685 ± 0.2 kcal/mol | 0.0456 ± 0.72 kcal/mol | 0.0846 ± 0.64 kcal/mol |
| SAGGKSISFGKKAGKEKMKEAIKKGLKNIKIVVFKDGKPEVIEVKADDLDKVFDNIPEDSIVVFEPESAGGS [r16_636_TrMRF] | 1.28 ± 0.06 kcal/mol | 2.19 ± 0.038 kcal/mol | 2.17 ± 0.17 kcal/mol |
| SAGGKTIVVPEKDVEKLLKELEKLGFKVTKVERKDGYVTVTIEVEKDGKLEKIEIRIYRPEDLDKPPSAGGS [r8_307_TrROS_Hall] | 1.1 ± 0.072 kcal/mol | 2.28 ± 0.06 kcal/mol | 2.01 ± 0.15 kcal/mol |
| SAGGKTKTYTFVLEDPVKKGIPVLAKVTVTYEPDENGNEVAPANVVVYYPDGKPEVLKVDVSNITGTGSAGG [r13_787_TrMRF] | 0.123 ± 0.13 kcal/mol | 1.11 ± 0.053 kcal/mol | 0.737 ± 0.06 kcal/mol |
| SAGGKTKVINVKVKSIEELLEKLAKLPNVKKVEVKEVNGKKEITIEVDGKKIKITKNKDGYYSIEIFPSAGG [r13_907_TrROS_Hall] | 2.16 ± 0.12 kcal/mol | 1.98 ± 0.34 kcal/mol | 2.25 ± 0.37 kcal/mol |
